Measurements as given in PMC5308204 (Nature genetics, 2010).

T1: HA-tagged VPS33A (UniProt Q96AX1 1-596)
T1 sequence (looked up): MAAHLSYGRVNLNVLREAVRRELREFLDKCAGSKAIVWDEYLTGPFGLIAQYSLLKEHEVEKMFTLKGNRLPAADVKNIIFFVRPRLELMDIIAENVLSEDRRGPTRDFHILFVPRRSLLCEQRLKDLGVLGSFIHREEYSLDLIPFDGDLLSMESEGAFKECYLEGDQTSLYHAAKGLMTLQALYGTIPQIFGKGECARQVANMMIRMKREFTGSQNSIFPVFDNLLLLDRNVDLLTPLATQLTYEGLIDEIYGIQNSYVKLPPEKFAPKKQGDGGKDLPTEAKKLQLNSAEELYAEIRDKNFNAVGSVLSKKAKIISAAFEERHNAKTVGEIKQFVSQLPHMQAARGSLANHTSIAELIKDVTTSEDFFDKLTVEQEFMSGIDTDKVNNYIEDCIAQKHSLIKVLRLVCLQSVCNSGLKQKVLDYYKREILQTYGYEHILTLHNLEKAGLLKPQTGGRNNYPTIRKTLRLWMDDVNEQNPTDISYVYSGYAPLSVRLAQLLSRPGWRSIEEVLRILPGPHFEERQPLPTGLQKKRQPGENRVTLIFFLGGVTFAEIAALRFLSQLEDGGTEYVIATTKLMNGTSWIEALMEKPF

T2: HA-tagged VPS33B (L30P) mutant (human, UniProt Q9H267 1-617, L30P)
T2 sequence (looked up): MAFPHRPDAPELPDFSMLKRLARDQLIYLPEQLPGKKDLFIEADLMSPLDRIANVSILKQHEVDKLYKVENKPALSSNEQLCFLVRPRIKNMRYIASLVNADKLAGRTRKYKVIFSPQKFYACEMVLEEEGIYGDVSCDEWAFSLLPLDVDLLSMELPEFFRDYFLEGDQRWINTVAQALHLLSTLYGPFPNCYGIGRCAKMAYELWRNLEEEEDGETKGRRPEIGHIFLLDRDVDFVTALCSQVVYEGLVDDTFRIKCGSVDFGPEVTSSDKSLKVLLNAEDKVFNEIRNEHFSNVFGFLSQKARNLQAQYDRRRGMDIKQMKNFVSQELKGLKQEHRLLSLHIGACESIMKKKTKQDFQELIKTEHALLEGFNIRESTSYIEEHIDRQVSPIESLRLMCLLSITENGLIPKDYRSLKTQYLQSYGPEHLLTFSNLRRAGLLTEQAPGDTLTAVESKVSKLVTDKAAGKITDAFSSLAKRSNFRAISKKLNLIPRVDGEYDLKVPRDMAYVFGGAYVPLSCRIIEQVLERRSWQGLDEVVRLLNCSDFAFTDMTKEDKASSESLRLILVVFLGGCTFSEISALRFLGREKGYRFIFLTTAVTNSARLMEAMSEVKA

T3: HA-tagged VPS33B (human, UniProt Q9H267 1-617)
T3 sequence (looked up): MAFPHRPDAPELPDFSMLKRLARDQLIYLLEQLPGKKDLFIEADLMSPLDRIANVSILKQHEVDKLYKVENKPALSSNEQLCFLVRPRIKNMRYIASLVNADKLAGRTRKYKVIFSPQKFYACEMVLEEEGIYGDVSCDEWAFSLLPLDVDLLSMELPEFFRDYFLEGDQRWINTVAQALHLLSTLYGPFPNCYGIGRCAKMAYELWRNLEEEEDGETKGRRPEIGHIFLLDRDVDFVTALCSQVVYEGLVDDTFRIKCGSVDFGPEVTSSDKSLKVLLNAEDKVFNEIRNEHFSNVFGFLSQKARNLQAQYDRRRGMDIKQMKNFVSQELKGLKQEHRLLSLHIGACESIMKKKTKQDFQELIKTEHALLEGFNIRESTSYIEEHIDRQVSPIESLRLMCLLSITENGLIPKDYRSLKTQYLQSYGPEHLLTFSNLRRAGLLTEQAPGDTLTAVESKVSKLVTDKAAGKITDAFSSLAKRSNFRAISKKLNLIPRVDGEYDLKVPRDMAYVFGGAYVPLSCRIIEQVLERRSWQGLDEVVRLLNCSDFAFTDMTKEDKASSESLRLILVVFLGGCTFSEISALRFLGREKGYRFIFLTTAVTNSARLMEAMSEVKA


Tests used:
Assay in all cases: co-IP
[1] = target: T1, HA-tagged VPS33A
[2] = target: T2, HA-tagged VPS33B (L30P) mutant
[3] = target: T3, HA-tagged VPS33B

percent of the Myc-tagged input recovered [1]	percent of the Myc-tagged input recovered [2]	percent of the Myc-tagged input recovered [3]	Binder
28.2%	–	–	Myc-tagged VPS16 (natural protein, human, UniProt Q9H269 1-839, looked up) MDCYTANWNPLGDSAFYRKYELYSMDWDLKEELRDCLVAAAPYGGPIALLRNPWRKEKAASVRPVLDIYSASGMPLASLLWKSGPVVSLGWSAEEELLCVQEDGAVLVYGLHGDFRRHFSMGNEVLQNRVLDARIFHTEFGSGVAILTGAHRFTLSANVGDLKLRRMPEVPGLQSAPSCWTVLCQDRVAHILLAVGPDLYLLDHAACSAVTPPGLAPGVSSFLQMAVSFTYRHLALFTDTGYIWMGTASLKEKLCEFNCNIRAPPKQMVWCSRPRSKERAVVVAWERRLMVVGDAPESIQFVLDEDSYLVPELDGVRIFSRSTHEFLHEVPAASEEIFKIASMAPGALLLEAQKEYEKESQKADEYLREIQELGQLTQAVQQCIEAAGHEHQPDMQKSLLRAASFGKCFLDRFPPDSFVHMCQDLRVLNAVRDYHIGIPLTYSQYKQLTIQVLLDRLVLRRLYPLAIQICEYLRLPEVQGVSRILAHWACYKVQQKDVSDEDVARAINQKLGDTPGVSYSDIAARAYGCGRTELAIKLLEYEPRSGEQVPLLLKMKRSKLALSKAIESGDTDLVFTVLLHLKNELNRGDFFMTLRNQPMALSLYRQFCKHQELETLKDLYNQDDNHQELGSFHIRASYAAEERIEGRVAALQTAADAFYKAKNEFAAKATEDQMRLLRLQRRLEDELGGQFLDLSLHDTVTTLILGGHNKRAEQLARDFRIPDKRLWWLKLTALADLEDWEELEKFSKSKKSPIGYLPFVEICMKQHNKYEAKKYASRVGPEQKVKALLLVGDVAQAADVAIEHRNEAELSLVLSHCTGATDGATADKIQRARAQAQKK
–	23.8%	28.6%	Myc-tagged VIPAR (natural protein, human, UniProt Q9H9C1 1-493, looked up) MNRTKGDEEEYWNSSKFKAFTFDDEDDELSQLKESKRAVNSLRDFVDDDDDDDLERVSWSGEPVGSISWSIRETAGNSGSTHEGREQLKSRNSFSSYAQLPKPTSTYSLSSFFRGRTRPGSFQSLSDALSDTPAKSYAPELGRPKGEYRDYSNDWSPSDTVRRLRKGKVCSLERFRSLQDKLQLLEEAVSMHDGNVITAVLIFLKRTLSKEILFRELEVRQVALRHLIHFLKEIGDQKLLLDLFRFLDRTEELALSHYREHLNIQDPDKRKEFLKTCVGLPFSAEDSAHIQDHYTLLERQIIIEANDRHLESAGQTEIFRKHPRKASILNMPLVTTLFYSCFYHYTEAEGTFSSPVNLKKTFKIPDKQYVLTALAARAKLRAWNDVDALFTTKNWLGYTKKRAPIGFHRVVEILHKNNAPVQILQEYVNLVEDVDTKLNLATKFKCHDVVIDTYRDLKDRQQLLAYRSKVDKGSAEEEKIDALLSSSQIRWKN
